The values below come from CN101218351A (UNIV DUKE, dated 2008).

In the assay the target is T1, human CD19 (human, UniProt P15391 20-556).
T1 construct: whole, on cells; also called hCD19
T1 sequence (looked up): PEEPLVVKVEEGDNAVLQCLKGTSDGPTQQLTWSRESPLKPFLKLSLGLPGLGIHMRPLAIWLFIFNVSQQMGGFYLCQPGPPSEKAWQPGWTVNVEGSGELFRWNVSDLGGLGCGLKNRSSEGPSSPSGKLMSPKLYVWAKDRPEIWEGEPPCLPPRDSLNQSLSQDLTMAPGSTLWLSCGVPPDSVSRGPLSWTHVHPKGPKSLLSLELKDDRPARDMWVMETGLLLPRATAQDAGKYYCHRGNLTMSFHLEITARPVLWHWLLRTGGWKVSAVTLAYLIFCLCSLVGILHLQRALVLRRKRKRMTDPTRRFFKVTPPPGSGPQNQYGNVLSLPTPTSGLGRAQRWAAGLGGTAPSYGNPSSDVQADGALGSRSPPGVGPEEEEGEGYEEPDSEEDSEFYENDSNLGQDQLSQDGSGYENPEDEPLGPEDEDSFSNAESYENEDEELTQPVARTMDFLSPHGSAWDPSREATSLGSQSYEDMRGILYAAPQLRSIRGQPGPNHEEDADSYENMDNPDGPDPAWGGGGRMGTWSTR
The experiment in a line: flow cytometry on hCD19 cDNA-transfected 300.19 cells, antibody at 5 ug/mL, anti-mouse Ig PE secondary. Background: Flow cytometry measures light scatter and fluorescence of single cells or particles in a stream.

B1: FMC63 anti-CD19 antibody (antibody, IgG2a, V domains shown)
VH: EVKLQESGPGLVAPSQSLSVTCTVSGVSLPDYGVSWIRQPPRKGLEWLGVIWGSEDTTYYNSALKSRLTIIKDNSKSQVFLKMNSLQTDDTAIYYCAKHYYYGGSYAMDYWGQGTSVTVSS
VL: DIQMTQTTSSLSASLGDRVTISCRASQDISKYLNWYQQKPDGTVKLLIYHTSRLHSGVPSRFSGSGSGTDYSLTISNLEQEDIATYFCQQGNTLPYTFGGGTKLEIT
notes: Mouse monoclonal IgG2a, bought from Chemicon International
For B1, the binding result was “binds”.
